From article PMC6839450 (ACS chemical biology, 2015)
Bridges are numbered along the chain shown (N, C = ends). Where no end group is shown, it is not given here. [ ]: non-standard residue; d: D form. The star is where a group is joined. FITC = O=C1OC2(c3ccc(O)cc3Oc3cc(O)ccc32)c2ccc(NC(=S)*)cc21; olefin residue = not defined here

Biological target: full-length BCL-XL (UniProt Q07817-1 1-233)
Assay: fluorescence polarisation

Sequence of full-length BCL-XL (Q07817 whole entry): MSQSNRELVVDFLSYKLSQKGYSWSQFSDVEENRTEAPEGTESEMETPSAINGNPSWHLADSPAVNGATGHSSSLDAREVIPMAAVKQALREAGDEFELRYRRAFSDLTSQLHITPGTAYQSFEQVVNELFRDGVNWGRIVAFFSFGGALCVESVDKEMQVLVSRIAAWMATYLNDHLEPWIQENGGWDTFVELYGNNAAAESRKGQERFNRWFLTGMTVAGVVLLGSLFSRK

In the case of {FITC}-EIWIAQELR[olefin residue]IGD[olefin residue]FNAYYA (staple 10-14; not fully specified; reading uncertain) [FITC-BIM SAHBA2], the Kd is reported as 68 nM.
